Results: the supplement of paper PMC6379048

Legend:
Assay in all cases: Kd (EC50 corrected by depletion factor)
MRPS26 = MRPS26 (UniProt Q9BYN8)
Summary of the method: (§1)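 To obtain EC50, data were fitted with a four-parameter log-logistic model; Kd was then EC50 multiplied by a protein-dependent depletion factor. Beforehand, free RNA oligos (0 nM to 30 μM) were pre-incubated with HEK293-FT lysate (2.5 mg protein/well) for 1 h at 4°C. The lysate then spent 30 min at 4°C with the same 5′-amino-C6 oligos coupled to NHS-Sepharose beads, and bound proteins were quantified by label-free LC-MS/MS, normalised to the control.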

ZFP36L1 = molecular target: T1, ZFP36L1 (UniProt Q07352)
T1 sequence: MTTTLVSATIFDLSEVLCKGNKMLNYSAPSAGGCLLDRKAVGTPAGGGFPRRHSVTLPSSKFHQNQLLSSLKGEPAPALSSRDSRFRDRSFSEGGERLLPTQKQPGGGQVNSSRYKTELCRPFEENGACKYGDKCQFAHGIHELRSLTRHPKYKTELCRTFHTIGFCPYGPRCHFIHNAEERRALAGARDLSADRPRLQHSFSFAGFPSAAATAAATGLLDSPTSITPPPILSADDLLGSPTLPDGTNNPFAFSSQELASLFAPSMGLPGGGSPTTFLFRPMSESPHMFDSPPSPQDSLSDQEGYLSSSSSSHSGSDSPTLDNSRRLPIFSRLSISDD
Summary of the method: as §1

HNRNPU = HNRNPU (UniProt Q00839)
Sequence of HNRNPU (Q00839 whole entry): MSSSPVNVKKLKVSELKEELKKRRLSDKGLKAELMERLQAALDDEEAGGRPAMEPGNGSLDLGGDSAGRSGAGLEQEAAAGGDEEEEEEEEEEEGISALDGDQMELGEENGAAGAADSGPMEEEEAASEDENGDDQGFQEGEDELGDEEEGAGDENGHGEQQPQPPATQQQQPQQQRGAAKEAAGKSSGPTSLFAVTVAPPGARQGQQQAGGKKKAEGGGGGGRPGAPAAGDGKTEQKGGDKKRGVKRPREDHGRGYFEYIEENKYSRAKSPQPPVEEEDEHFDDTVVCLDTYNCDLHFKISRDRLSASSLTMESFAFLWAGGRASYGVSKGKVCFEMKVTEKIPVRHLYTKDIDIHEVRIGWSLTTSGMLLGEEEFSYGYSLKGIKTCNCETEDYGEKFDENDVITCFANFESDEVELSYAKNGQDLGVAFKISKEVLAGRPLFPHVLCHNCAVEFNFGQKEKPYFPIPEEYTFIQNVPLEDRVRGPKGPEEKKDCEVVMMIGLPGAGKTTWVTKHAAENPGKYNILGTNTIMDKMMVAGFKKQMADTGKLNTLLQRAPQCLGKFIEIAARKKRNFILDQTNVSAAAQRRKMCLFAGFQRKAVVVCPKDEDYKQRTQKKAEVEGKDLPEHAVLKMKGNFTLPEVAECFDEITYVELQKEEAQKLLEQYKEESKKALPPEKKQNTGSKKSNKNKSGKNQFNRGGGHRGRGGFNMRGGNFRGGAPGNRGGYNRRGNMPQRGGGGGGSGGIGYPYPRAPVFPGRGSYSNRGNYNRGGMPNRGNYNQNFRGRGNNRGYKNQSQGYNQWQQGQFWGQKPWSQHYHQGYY
Summary of the method: as §1

ICT1 = ICT1 (UniProt Q14197)
Summary of the method: as §1

IGF2BP1 = IGF2BP1 (UniProt Q9NZI8)
Sequence of IGF2BP1 (Q9NZI8 whole entry): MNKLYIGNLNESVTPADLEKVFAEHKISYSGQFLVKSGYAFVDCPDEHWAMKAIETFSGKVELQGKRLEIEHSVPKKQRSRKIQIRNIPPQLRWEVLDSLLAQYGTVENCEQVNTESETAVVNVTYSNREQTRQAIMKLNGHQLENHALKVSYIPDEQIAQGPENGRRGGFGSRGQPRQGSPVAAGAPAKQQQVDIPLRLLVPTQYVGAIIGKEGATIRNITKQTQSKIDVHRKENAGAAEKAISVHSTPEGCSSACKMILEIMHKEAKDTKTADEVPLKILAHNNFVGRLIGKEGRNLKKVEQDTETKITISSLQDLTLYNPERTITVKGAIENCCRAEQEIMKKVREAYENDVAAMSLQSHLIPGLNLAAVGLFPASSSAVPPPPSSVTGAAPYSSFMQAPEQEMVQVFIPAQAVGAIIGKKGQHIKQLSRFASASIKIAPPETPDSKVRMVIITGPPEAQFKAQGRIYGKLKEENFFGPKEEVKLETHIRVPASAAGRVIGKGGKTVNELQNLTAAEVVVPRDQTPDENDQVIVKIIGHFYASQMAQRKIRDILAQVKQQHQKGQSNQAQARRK
Summary of the method: as §1

IGF2BP2 = IGF2BP2 (UniProt Q9Y6M1)
Sequence of IGF2BP2 (Q9Y6M1 whole entry): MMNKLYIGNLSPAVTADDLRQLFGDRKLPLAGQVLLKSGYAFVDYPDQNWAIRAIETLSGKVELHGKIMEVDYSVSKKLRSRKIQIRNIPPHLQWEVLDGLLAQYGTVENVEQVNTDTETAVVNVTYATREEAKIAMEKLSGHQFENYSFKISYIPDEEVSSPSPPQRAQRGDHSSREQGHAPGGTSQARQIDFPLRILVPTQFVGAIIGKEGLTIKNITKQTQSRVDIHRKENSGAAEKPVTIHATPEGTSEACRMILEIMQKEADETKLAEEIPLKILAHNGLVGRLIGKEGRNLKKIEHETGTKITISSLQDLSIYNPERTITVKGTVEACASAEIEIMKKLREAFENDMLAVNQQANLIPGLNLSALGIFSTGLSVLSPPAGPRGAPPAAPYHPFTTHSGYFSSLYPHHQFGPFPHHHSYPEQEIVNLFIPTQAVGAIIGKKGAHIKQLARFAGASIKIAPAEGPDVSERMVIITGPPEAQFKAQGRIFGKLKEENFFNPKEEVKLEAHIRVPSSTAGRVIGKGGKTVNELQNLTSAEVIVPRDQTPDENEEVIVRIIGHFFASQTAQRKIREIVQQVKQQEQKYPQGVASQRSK
Summary of the method: as §1

MRPL12 = MRPL12 (UniProt P52815)
Summary of the method: as §1

MRPL48 = MRPL48 (UniProt Q96GC5)
Summary of the method: as §1

NONO = molecular target: T2, NONO (UniProt Q15233)
T2 sequence: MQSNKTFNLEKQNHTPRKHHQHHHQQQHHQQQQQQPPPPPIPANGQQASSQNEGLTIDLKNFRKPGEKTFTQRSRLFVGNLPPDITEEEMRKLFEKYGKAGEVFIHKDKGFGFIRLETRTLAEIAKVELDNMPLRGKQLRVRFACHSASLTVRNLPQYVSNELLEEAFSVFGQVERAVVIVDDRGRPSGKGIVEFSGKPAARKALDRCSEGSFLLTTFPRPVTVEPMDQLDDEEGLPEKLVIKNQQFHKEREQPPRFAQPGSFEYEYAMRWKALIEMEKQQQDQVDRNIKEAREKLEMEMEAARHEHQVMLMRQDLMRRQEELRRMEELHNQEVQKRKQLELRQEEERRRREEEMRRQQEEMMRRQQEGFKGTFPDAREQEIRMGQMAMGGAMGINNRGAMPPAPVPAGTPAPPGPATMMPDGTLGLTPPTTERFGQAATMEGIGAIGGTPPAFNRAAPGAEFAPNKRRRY
Summary of the method: as §1

SF3B2 = molecular target: T3, SF3B2 (UniProt Q13435)
T3 sequence: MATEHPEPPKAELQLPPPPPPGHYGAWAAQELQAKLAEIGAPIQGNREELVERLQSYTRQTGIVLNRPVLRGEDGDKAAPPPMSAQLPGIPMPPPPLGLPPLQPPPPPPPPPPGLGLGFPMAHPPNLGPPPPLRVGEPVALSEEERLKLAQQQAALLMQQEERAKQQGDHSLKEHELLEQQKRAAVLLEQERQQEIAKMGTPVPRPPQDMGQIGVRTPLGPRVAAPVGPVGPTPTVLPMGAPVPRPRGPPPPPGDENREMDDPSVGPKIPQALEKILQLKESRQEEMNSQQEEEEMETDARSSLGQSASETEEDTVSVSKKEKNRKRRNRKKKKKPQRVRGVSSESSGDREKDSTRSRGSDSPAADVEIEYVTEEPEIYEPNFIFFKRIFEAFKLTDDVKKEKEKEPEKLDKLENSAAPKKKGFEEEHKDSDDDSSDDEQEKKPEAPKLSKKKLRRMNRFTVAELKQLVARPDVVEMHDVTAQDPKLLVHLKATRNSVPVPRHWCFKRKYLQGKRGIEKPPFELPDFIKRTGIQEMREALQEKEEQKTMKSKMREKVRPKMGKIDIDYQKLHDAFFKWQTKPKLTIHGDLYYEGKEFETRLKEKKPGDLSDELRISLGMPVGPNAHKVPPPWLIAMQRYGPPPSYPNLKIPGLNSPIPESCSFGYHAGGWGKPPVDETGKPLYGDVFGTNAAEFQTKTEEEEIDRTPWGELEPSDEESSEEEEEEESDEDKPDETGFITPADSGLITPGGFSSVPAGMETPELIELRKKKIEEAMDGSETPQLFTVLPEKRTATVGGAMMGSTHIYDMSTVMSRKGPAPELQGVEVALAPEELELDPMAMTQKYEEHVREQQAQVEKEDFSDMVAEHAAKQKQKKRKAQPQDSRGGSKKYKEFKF
Summary of the method: as §1

SF3B5 = molecular target: T4, SF3B5 (UniProt Q9BWJ5)
T4 sequence: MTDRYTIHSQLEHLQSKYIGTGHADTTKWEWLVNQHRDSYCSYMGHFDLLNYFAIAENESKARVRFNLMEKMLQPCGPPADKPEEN
Summary of the method: as §1

TSNAX = molecular target: T5, TSNAX (UniProt Q99598)
T5 sequence: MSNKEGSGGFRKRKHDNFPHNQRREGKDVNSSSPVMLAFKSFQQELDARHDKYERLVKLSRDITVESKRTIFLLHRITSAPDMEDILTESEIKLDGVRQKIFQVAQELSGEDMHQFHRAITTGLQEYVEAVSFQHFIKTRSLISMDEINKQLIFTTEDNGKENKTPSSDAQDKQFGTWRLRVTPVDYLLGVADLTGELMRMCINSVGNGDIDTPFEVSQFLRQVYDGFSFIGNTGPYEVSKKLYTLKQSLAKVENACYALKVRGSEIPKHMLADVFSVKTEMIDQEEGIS
Summary of the method: as §1

Q: Which Kd (MRPS26) does the source give for UAUUUAU here?
A: The Kd was 15.9 nM.

Q: What about the Kd (ZFP36L1) of the same sequence?
A: Its Kd is 24.4 nM.

Q: Which results are given for CUGUCCU?
A: Kd (HNRNPU): 90.1 nM; Kd (ICT1): 48.1 nM; Kd (IGF2BP1): 1240 nM; Kd (IGF2BP2): 924 nM; Kd (MRPL12): 43.7 nM; Kd (MRPL48): 96.1 nM

Q: Which Kd (NONO) does the source give for AAUAAA here?
A: The Kd was 0.305 nM.

Q: What about the Kd (SF3B2) of the same sequence?
A: The Kd was 719 nM.

Q: And the Kd (SF3B5)?
A: The Kd was 766 nM.

Q: What about the Kd (TSNAX) of the same sequence?
A: The Kd was 5.96 nM.
